These results are taken from patent publication US20150361454.

The target in this series is Prochlorococcus marinus MED4 aldehyde decarbonylase (MED4_ADC), wild type.

B1: Prochlorococcus marinus MED4 acyl-ACP reductase (MED4_AAR), wild type (protein)
chain: MAFGLIGHSTSFEDAKRKASLLGFDHIADGDLDVWCTAPPQLVENVEVKSAIGISIEGSYIDSCFVPEMLSRFKTARRKVLNAMELAQKKGINITALGGFTSIIFENFNLLQHKQIRNTSLEWERFTTGNTHTAWVICRQLEMNAPKIGIDLKSATVAVVGATGDIGSAVCRWLINKTGIGELLLVARQKEPLDSLQKELDGGTIKNLDEALPEADIVVWVASMPKTMEIDANNLKQPCLMIDGGYPKNLDEKFQGNNIHVVKGGIVRFFNDIGWNMMELAEMQNPQREMFACFAEAMILEFEKCHTNFSWGRNNISLEKMEFIGAASVKHGFSAIGLDKHPKVLAV
Regarding B1, the “products detected on coexpression in E. coli (AAR catalytic activity)” value was “when only MED4_AAR is expressed in E. coli no products are detected, and when MED4_AAR and ADC are coexpressed in E. coli the only products detected are alkanes”.
